Measurements taken from the supplement of paper PMC5998384.

Columns and labels:
HeLa Kyoto [1] = assay: solubility change mitosis vs G1/S (difference of NP-40 vs SDS log2 ratios) (log2 ratio difference); higher = more soluble in mitosis
HeLa Kyoto [2] = assay: solubility in G1/S (NP-40 vs SDS abundance) (log2 ratio); higher = more soluble; settings: cell cycle stage: G1/S
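Wherever solubility change mitosis vs G1/S (difference of NP-40 vs SDS log2 ratios) is given: synchronized HeLa Kyoto cells (double thymidine block for G1/S, nocodazole release for mitosis), protein amounts in NP-40 versus SDS lysates quantified by mass spectrometry, three biological replicates.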
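Wherever solubility in G1/S (NP-40 vs SDS abundance) is given: HeLa Kyoto cells arrested at G1/S by double thymidine block, proteins quantified by TMT10plex mass spectrometry in mild NP-40 versus SDS extracts, three biological replicates.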

Sequence	solubility change mitosis (log2) (HeLa Kyoto [1])	solubility in G1/S (log2) (HeLa Kyoto [2])
MNQPQRMAPVGTDKELSDLLDFSMMFPLPVTNGKGRPASLAGAQFGGSGLEDRPSSGSWGSGDQSSSSFDPSRTFSEGTHFTESHSSLSSSTFLGPGLGGKSGERGAYASFGRDAGVGGLTQAGFLSGELALNSPGPLSPSGMKGTSQYYPSYSGSSRRRAADGSLDTQPKKVRKVPPGLPSSVYPPSSGEDYGRDATAYPSAKTPSSTYPAPFYVADGSLHPSAELWSPPGQAGFGPMLGGGSSPLPLPPGSGPVGSSGSSSTFGGLHQHERMGYQLHGAEVNGGLPSASSFSSAPGATYGGVSSHTPPVSGADSLLGSRGTTAGSSGDALGKALASIYSPDHSSNNFSSSPSTPVGSPQGLAGTSQWPRAGAPGALSPSYDGGLHGLQSKIEDHLDEAIHVLRSHAVGTAGDMHTLLPGHGALASGFTGPMSLGGRHAGLVGGSHPEDGLAGSTSLMHNHAALPSQPGTLPDLSRPPDSYSGLGRAGATAAASEIKREEKEDEENTSAADHSEEEKKELKAPRARTSPDEDEDDLLPPEQKAEREKERRVANNARERLRVRDINEAFKELGRMCQLHLNSEKPQTKLLILHQAVSVILNLEQQVRERNLNPKAACLKRREEEKVSGVVGDPQMVLSAPHPGLSEAHNPAGHM [TCF3]	-0.0342	0.291
MNRIRIHVLPTNRGRITPVPRSQEPLSCAFTHRPCSHPRLEGQEFCIKHILEDKNAPFKQCSYISTKNGKRCPNAAPKPEKKDGVSFCAEHVRRNALALHAQMKKTNPGPVGETLLCQLSSYAKTELGSQTPESSRSEASRILDEDSWSDGEQEPITVDQTWRGDPDSEADSIDSDQEDPLKHAGVYTAEEVALIMREKLIRLQSLYIDQFKRLQHLLKEKKRRYLHNRKVEHEALGSSLLTGPEGLLAKERENLKRLKCLRRYRQRYGVEALLHRQLKERRMLATDGAAQQAHTTRSSQRCLAFVDDVRCSNQSLPMTRHCLTHICQDTNQVLFKCCQGSEEVPCNKPVPVSLSEDPCCPLHFQLPPQMYKPEQVLSVPDDLEAGPMDLYLSAAELQPTESLPLEFSDDLDVVGDGMQCPPSPLLFDPSLTLEDHLVKEIAEDPVDILGQMQMAGDGCRSQGSRNSEKASAPLSQSGLATANGKPEPTSIS [KANSL2]	-0.0302	0.453
MNSRQAWRLFLSQGRGDRWVSRPRGHFSPALRREFFTTTTKEGYDRRPVDITPLEQRKLTFDTHALVQDLETHGFDKTQAETIVSALTALSNVSLDTIYKEMVTQAQQEITVQQLMAHLDAIRKDMVILEKSEFANLRAENEKMKIELDQVKQQLMHETSRIRADNKLDINLERSRVTDMFTDQEKQLMETTTEFTKKDTQTKSIISETSNKIDAEIASLKTLMESNKLETIRYLAASVFTCLAIALGFYRFWK [CCDC90B]	0.249	0.144
MNSVGEACTDMKREYDQCFNRWFAEKFLKGDSSGDPCTDLFKRYQQCVQKAIKEKEIPIEGLEFMGHGKEKPENSS [TRIAP1]	0.6	-0.88
MNVTSIALRAETWLLAAWHVKVPPMWLEACINWIQEENNNVNLSQAQMNKQVFEQWLLTDLRDLEHPLLPDGILEIPKGELNGFYALQINSLVDVSQPAYSQIQKLRGKNTTNDLVTAEAQVTPKPWEAKPSRMLMLQLTDGIVQIQGMEYQPIPILHSDLPPGTKILIYGNISFRLGVLLLKPENVKVLGGEVDALLEEYAQEKVLARLIGEPDLVVSVIPNNSNENIPRVTDVLDPALGPSDEELLASLDENDELTANNDTSSERCFTTGSSSNTIPTRQSSFEPEFVISPRPKEEPSNLSIHVMDGELDDFSLEEALLLEETVQKEQMETKELQPLTFNRNADRSIERFSHNPNTTNNFSLTCKNGNNNWSEKNVSEQMTNEDKSFGCPSVRDQNRSIFSVHCNVPLAHDFTNKEKNLETDNKIKQTSSSDSHSLNNKILNREVVNYVQKRNSQISNENDCNLQSCSLRSSENSINLSIAMDLYSPPFVYLSVLMASKPKEVTTVKVKAFIVTLTGNLSSSGGIWSITAKVSDGTAYLDVDFVDEILTSLIGFSVPEMKQSKKDPLQYQKFLEGLQKCQRDLIDLCCLMTISFNPSLSKAMVLALQDVNMEHLENLKKRLNK [RMI1]	0.0277	-0.0709
